A value given as a limit tells only on which side of the number the result lay.

In test [1] the target is T1, recombinant KIT D4/D5 polypeptide (D4/D5 region of human KIT, V308 to H515, with 5xHis tag) (human, UniProt P10721 26-519).
T1 construct: The end residue 246 was computed from the stated composition (33 + 208 + 5); This is the glycosylated (untreated) form; also called KIT D4/D5 antigen; KIT immunogen
Kind of test: competition solid phase ELISA on KIT D4/D5 antigen; reference 37M titrated with competitor antibody 37C at 10 nM.

Test [2] concerns the target full-length, wild-type human KIT (human, UniProt P10721 26-976). Kind of test: cell-based or functional assay.
Test [3] has as its target T2, recombinant D4 domain polypeptide of human KIT (V308 to K412, with 6xHis tag) (human, UniProt P10721 26-412).
T2 construct: The end residue 144 was computed (33 + 105 + 6); also called D4 region; D4 domain of human KIT
Kind of test: solid phase ELISA, antigen coated on plate; D4 region alone.

Test [4] addresses T1, recombinant KIT D4/D5 polypeptide …. Kind of test: competition solid phase ELISA on KIT D4/D5 antigen; reference 37M titrated alone, no competitor.
Test [5] has as its target T3, recombinant D5 domain polypeptide of human KIT (N410 to H515, with 5xHis tag) (human, UniProt P10721 26-519).
T3 construct: The end residue 144 was computed (33 + 106 + 5); also called D5 region; D5 domain of human KIT
Kind of test: solid phase ELISA, D5 antigen coated on the plate.

full-length, wild-type human KIT, sequence (P10721 other isoform, or with tags, fused parts or gaps limits assumed): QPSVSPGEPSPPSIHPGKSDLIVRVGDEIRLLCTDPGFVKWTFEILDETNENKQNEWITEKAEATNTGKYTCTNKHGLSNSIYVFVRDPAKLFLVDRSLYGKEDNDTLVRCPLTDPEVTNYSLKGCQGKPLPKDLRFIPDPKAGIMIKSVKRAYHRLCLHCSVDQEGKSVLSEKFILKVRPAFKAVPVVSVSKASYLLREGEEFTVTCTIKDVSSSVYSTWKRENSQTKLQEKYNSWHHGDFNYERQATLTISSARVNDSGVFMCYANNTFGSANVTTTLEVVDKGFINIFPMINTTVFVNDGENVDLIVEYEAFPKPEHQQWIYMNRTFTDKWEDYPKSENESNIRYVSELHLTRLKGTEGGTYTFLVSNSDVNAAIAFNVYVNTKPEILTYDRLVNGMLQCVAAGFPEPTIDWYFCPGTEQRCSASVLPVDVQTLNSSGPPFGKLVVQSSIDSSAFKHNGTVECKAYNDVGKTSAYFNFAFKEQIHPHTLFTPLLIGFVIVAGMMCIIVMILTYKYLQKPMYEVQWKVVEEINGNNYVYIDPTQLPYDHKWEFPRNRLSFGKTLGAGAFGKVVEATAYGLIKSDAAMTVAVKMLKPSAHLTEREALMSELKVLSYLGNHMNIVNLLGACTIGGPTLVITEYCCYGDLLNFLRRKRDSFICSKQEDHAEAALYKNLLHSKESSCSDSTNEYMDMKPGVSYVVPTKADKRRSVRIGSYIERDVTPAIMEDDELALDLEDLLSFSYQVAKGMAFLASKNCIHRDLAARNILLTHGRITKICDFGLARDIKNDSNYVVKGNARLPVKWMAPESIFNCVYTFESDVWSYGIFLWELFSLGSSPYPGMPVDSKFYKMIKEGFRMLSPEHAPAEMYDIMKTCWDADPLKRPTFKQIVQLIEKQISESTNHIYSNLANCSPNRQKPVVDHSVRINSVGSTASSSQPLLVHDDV
T1 sequence (P10721 other isoform, or with tags, fused parts or gaps): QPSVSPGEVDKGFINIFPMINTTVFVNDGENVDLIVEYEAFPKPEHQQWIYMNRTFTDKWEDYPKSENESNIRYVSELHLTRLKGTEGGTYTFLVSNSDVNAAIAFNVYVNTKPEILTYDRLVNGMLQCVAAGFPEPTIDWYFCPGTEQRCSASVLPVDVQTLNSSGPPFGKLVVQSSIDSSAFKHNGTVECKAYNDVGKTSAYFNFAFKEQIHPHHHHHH
T3 sequence (P10721 other isoform, or with tags, fused parts or gaps): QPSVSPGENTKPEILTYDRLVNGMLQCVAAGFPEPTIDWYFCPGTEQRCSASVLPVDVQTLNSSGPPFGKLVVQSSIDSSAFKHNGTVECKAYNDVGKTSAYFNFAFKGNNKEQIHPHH
T2 sequence (P10721 other isoform, or with tags, fused parts or gaps): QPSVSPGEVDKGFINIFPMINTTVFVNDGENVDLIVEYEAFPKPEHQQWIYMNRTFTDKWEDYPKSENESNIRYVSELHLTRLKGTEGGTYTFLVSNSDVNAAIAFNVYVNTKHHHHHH

B1: antibody 37M (antibody, V domains shown)
VH: QVQLKQSGAELVRPGASVKLSCKASGYTFTDYYINWVKQRPGQGLEWIARIYPGSGNTYYNEKFKGKATLTAEKSSSTAYMQLSSLTSEDSAVYFCARGVYYFDYWGQGTTLTVSS
VL: DIVMTQSQKFMSTSVGDRVSVTCKASQNVRTNVAWYQQKPGQSPKALIYSASYRYSGVPDRFTGSGSGTDFTLTISNVQSEDLADYFCQQYNSYPRTFGGGTKLEIKR
notes: also called anti-KIT antibody 37M; 37M antibody
As for B1, the EC50 was 2.8 nM in test [1], approximately 0.572 nM in test [3], 0.115 nM in test [4] and more than 3000 nM in test [5]. Further, the “50% inhibition concentration (IC50) of SCF-induced KIT tyrosine phosphorylation, cell-based phospho-KIT assay, CHO/KIT-WT cells” value in test [2] is approximately 0.109 nM. Further, in test [2], the “IC50 of SCF-induced AKT phosphorylation (phospho-AKT assay), sorted CHO/KIT-WT cells” value is approximately 0.138 nM. In test [2], the “IC50 of SCF-induced KIT tyrosine phosphorylation, separate experiment (FIG. 11A), CHO/KIT-WT cells” value is approximately 0.096 nM.

Source of the values: patent publication US20190100598A1 (CELLDEX THERAPEUTICS, published 2019).
